This is an account of results in the DeepSol protein solubility set.

This data set in a line: soluble on expression in E. coli; label from the status in PepcDB or PDB records.
“MSLEDHAEELASDLGVDKEEVTRDLENLVNYSVPMDEAKQSLRRKYGDGSSGGDSTPSSKAINEVSTEDSNVTVTAVVLTSGRRSIQYNGEQHVIREGELADETGKISYTAWDGFSGDLQPGQTVQLGNAGVREWDGQPELNLGDSTDPEVVDETLDIDYDVGGRAALQDLAPGDRGITVEVQVLECEQKVIDGRDGETTILSGVLGDESGRLPFTDWDPHDEIEEGASVRLDETFVREFRGAPSVNVSEFSAVTALDRTVGVTEDAPRLSVREAVESGGLFDVELAGNVIEVRDGSGLIERCPECGRVIQNGQCRSHGAVEGEDDLRTKAILDDGTDTVTAVLDDELTARVYGGDLDDAREHARDAMDKEVVAERISDRIVGREYVVRGSLSVDEYGANLTASTFAEADDDPATRAQALLQEADTLEHHHHHH”: the “soluble on expression in E. coli” value was “soluble”. As for “MSLEDYSVVNRFESHGGGWGYSAHSVEAIRFSADTDILLGGLGLFGGRGEYTAKIKLFELGPDGGDHETDGDLLAETDVLAYDCAAREKYAMMFDEPVLLQAGWWYVAWARVSGPSSDCGSHGQASITTDDGVIFQFKSSKKSNNGTDVNAGQIPQLLYRLPTSDGSTSKGKQQTSEPVHILKRSFARTVSVECFESLLSILHWSWTTLVLGVEELRGLKGFQFTATLLDLERLRFVGTCCLRLLRVYTCEIYPVSATGKAVVEETSKLAECIGKTRTLLRKILSEGVDHCMVKLDNDPQGYLSQPLRLLEAVLQECHNTFTACFHSFYPTPALQWACLCDLLNCLDQEANFKTSSSRLLAAVMSALCHTSVKLTSLFPIAYDGEVLLRSIVKQVSTENDSTLVHRFPLLVGHMEKLSQSEENISGMTSFREVLEKMLVIVVLPVRNSLRRESELFSSHLVSNTCGLLASIVSELTASALGSEVDGLNSLHSVKASANRFTKTSQGRSWNTGNGSPDAICFAVDKPGIVVVGFAVYGGGGIHEYELEVLVDDSEHAGDSTHSHRWTSLELVKGTYTTDDSPSDIAEIRLDKVVPLKENVKYAVRLRNYGSRTANGDGGMTTVQCPDGVTFTFSTCSLSSNGTNQTRGQIPQILYYRSEEGHHHHHH”, the entry is “not soluble”; as for “MSLEEWEKHMQNFIPDMLVTFPLAPRSDEYFYEHIEANDGAVHLRGGFFVGGDEGSASVDFSITDPDGDIIYKKSKSEGLFYFTAKKKGTYSFIVSNHQWLESRMVTFAIGRGNETALMPKHVQTAGEMADTLQNQLRDIQLLLLQQEKENGSSSSVSEEKADATASAASAGGLTDREMKQVIYGACRKVDARNATEIPSCRGIPLTEVHRHWVIEEKERIARMGGTIENGRVNGSLEVTRSFGDISLKRYGVSCVPTVKKFTLDPALDEFVLMGCDGFWNCWTASEALNLASEAWEKEIRSSKVHSRPVDPQNVSKQLVEHVLIDKKSQDNITVLLLKISRKEGHHHHHH”, “soluble”. For the sequence “MSLEFLIYSLPEEVLREEMLGNFSVALKLIDDFLKKDLPLLQRERLIYEKERIERLLEDYPFTEKEAMEKMREMFEGFSEGEFQYLMNEGVLDYIVVEGEKRFERRFFHNLAFVRSEYRERLRKDERSEKARRILHERLERLIKGEDPKRYRIRARITLKLKETSSKHRVWLPFPKESLQIESVKLLRTSHKSYYISPNDVPQRTIYFEGEDSTFFVEFEYIVREWVNHVDPERVSEKVAGFEEFLKEEPPHIVFTPKLRWLTQTVVGSEVNPYLKAKRIYDWITLNVRYSYVKPYALYENITDFVVNNLKGDCGFQALLFITMCRIAGVPARWQSGWYINPIFGSPHDWALFYVEPYGWLPADLSFGGARRDNESFRSFYFGNLDGFRMVANDGFMKDFDPKTRFVRSDPTDNQVGEAESEEKRLPFESTIEVISFEEVEGGSHHHHHH”, the “soluble on expression in E. coli” value was “soluble”. As for “MSLEFYIADFKQIKEGKVTDIYFERTLKTLEYLGIKDAKVRMEVHSYGLPKGYEWALFTGLEEVLHLLEGVPVNVYAMPEGTLFKEIEPVMIIEGNYLDFGIYETAFLGILRHYSSISTKAARLKFLAMDKTLFFFGLRSLHPALAPMADRAAYIGGMDGVSGAMSKEYLGVDPSGTMPHALMLIVGDNVKAWKAFDEAMGSEVPRITLVDTFEDERTEALKAATLLGKKLYGIRLDTPSSRRGNFRKIIQEVKWTLKIHGYDHVKIFASGGIDEDDIINLRDIVDGFGIGTSIAFPPSVDFSADIVEKFVDGKWVPFTKRGKWPGAKQVYRCGKLNDVITLMDQEHPSSDCKPLLQKYMENGKIIKPLPSPKEIREYVIKQLTELQSSEGHHHHHH”, the entry is “soluble”. As for “MSLEGEKRVELHLHSPMSQMDAVTGIGKLVEQAKKWGHEAIALTDHAVVQSFPDAYSAAKKHGIKMIYGMEANLVDDGVPIAYNAAHRLLEEETYVVFDVETTGLSAVYDTIIELAAVKVKGGEIIDKFEAFANPHRPLSATIIELTGITDDMLQDAPDVVDVIRDFREWIGDDILVAHNASFDMGFLNVAYKKLLEVEKAKNPVIDTLELGRFLYPEFKNHRLNTLCKKFDIELTQHHRAIYDTEATAYLLLKMLKDAAEKGIQYHDELNENMGQSNAYQRSRPYHATLLAVNSTGLKNLFKLVSLSHIHYFYRVPRIPRSQLEKYREGLLIGSACDRGEVFEGMMQKSPEEVEDIASFYDYLEVQPPEVYRHLLELELVRDEKALKEIIANITKLGEKLNKPVVATGNVHYLNDEGHHHHHH”, the “soluble on expression in E. coli” value is listed as “soluble”. As for “MSLEIGILDIKGSLPLFEDFGNLPTKIITENNYKEIKDLDALIIPGGSLIESKSLNDDLKKEIINFNGYIIGICSGFQILAKKIDIGRKSSVPIIKEGLGLLDVEFSPLVCTDRVEFEVKKSIFGEGKGEGFHCHTYGNIEVVDKETKILTVSKVKKLNYKLGAEKEIISGAFKGKVFGTMVHNFLDNEFVRDNFLKHLGVTEDEKEEIFEKNKIIKDELKKRALKYRLNPKLLKENNKKDVNKKRGIILLATSSNSGKTFLTTALSSKLNGRVFVAKIGGDVRDIVPALYLLREKMTKYNSIKIGERGWVDVSKFLDYIKKSDYDYIIVEGVMGAFTAALKNISSYQIAKKLGFPVYIVSACNISGIEGAFVEAMAYYSLLKDIGIKVEGVILNKVYDWNSFNKLKSLAEKHNIKLYGVGKIANESRGLIPEVEIDYESFCRNAFNVDLEIEIPEVEINNHIKDEEDNFLERLDNWMENINEGHHHHHH”, the entry is “soluble”; as for “MSLEISASIIDISENALEQLGVDWRLHNSRFDLQTGNGTNTMLNNPGSLDSVATTAGAAAAIAATPAGGVLSAVIGGGSRYLMARISALQQTDQARITANPKVATLDNTEAVMDNRQNFYVPVAGYQSADLYAISAGVSLRVLPMVVMDGGTVRIRMNVHIEDGQITSQQVGNLPITSQSEIDTQALINEGDSLLIAGYSVEQQSKSVDAVPGLSKIPLVGALFRTDQTTGKRFQRMFLVTPRVITEGHHHHHH”, “not soluble”; as for “MSLEKHKVDFYNIPIVDYLLSIGEPLESVGHNYYQHKHHDSLKINQRKNYFVWNSRSSEKNSRGGVVQYMQIMHNLSLQETLSKLSEDLDGKVLPAIPKKSYPKKFNYKVKEAIVPLETQRYLVAKRKIPNKIVRLFFSYDLISQNENNEVIFKWFKGDKVMGFSKQGTIPLTDEEKEKYHTKRDFFKYVAPTTEADTMWGFNYLSGEPKHIFFFESEIDLMSYYSIFEEELNETGNFWLISINGVAIEKVYSFFRYGIENLNLKETCQSLHVCFDNDIAGKQACNKLQHLEFKNIPFQNDLPKEFKDWNEVLQNKEGHHHHHH”, “soluble”. As for “MSLEKHRMLVIDDDPIAHQIMQMLFEAELRLTCKVTGEEGLSAVEEEQPEIVLLDIEMEGMDGYEACRRIRQLNLPSQPYIIFVSAHSDPVKRLAAYSVGGEDFVSKPLQPQELTRKVEQALRYRREGHHHHHH”, the entry is “not soluble”; as for “MSLELIPCGWRRYVEFRMTIVNHISPIHSVDKKGWRWFDENTKNWGFKDMIPAVILNNVNVGFLLNGEITIIAEVEVHEFIDTLNASQVEELSDDSSEDLQNKDNVTIEVNGFQVLDSQVDQVNAIFEKHPDLISNFSLKNQHIRNAYMHALLDLTKTLSKSTKELTVEDMNEADNTITDLIKAGLNLDWLRQKFDQALEKQIAYDTRIGELEKQVKKRKLAVTELEADLEKEKAAASASLMLFDEGHHHHHH”, “not soluble”.
